The values that follow come from article PMC6380956 (Biochemistry, 2019).

The target of assay [1] is Methanocaldococcus jannaschii CobT (NaMN:DMB phosphoribosyltransferase) (Methanocaldococcus jannaschii). In words: AUC.
Assay [2] has as its target T1, MjCobT (Methanocaldococcus jannaschii, UniProt Q58993).
T1 sequence (Q58993 1-350): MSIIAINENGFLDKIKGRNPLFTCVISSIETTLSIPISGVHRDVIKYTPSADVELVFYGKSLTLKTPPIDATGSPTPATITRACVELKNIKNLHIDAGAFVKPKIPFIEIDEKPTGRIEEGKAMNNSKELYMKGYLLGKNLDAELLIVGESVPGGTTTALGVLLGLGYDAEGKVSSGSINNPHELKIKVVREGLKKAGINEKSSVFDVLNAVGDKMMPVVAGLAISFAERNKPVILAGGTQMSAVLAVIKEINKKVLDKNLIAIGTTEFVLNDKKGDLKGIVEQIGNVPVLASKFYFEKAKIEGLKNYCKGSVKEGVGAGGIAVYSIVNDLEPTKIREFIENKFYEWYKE
Kind of assay: isothermal titration calorimetry. It counts as binding. For orientation: ITC needs no label: the signal is the heat of the interaction.

In assay [3] the target is T1, MjCobT. In words: product formation by purified enzyme from NaMN and [[…]-14C]-DMB, TLC. Format: biochemical.

What is called stoichiometry N is a count of units in the complex or per binding partner. For orientation: Kd means the concentration at which binding is half-saturated. A higher Kd goes with weaker binding.

Turning to “Methanocaldococcus jannaschii CobT (NaMN:DMB phosphoribosyltransferase) (enzyme)”, in assay [1], the percent of the c(s) distribution in the dimer species was 81.3% and the stoichiometry N came out at 2.

For `O=C([O-])c1ccc[n+]([C@@H]2O[C@H](COP(=O)(O)O)[C@@H](O)[C@H]2O)c1` [NaMN], the Kd on MjCobT [2] is 3.2 µM.

For `Cc1cc2ncn([C@H]3O[C@H](COP(=O)(O)O)[C@@H](O)[C@H]3O)c2cc1C` [α-RP], the “product formation by purified enzyme from NaMN and [2-14C]-DMB, TLC” value on MjCobT [3] is reported as “the amount of MjCobT-generated α-RP is displayed as a function of time for each concentration of NaMN tested”.
